# ± gives the uncertainty stated by the source.
# Assay: self-splicing fitness, log relative to wild type (ln ratio); higher = more splicing; Tetrahymena group I intron in knt gene, E. coli kanamycin selection, DiMSum; sequences stand for … in CUCUCU…GGAGGGAAAAGUUAUCAGGCAUGCACCUGGUAGCUAGUCUUUAAACCAAUAGAUUGCAUCGGUUUAAAAGGCAAGACCGUCAAAUUGCGGGAAAGGGGUCAACAGCCGUUCAGUACCAAGUCUCAGGGGAAACUUUGAGAUGGCCUUGCAAAGGGUAUGGUAAUAAGCUGACGGACAUGGUCCUAACCACGCAGCCAAGUCCUAAGUCAACAGAUCUUCUGUUGAUAUGGAUGCAGUUCACAGACUAAAUGUCGGUCGGGGAAGAUGUAUUCUUCUCAUAAGAUAUAGUCGGACCUCUCCUUAAUGGGAGCUAGCGGAUGAAGUGAUGCAACACUGGAGCCGCUGGGAACUAAUUUGUAUGCGAAAGUAUAUUGAUUAGUUUUGGAGUACUCGUGGUCG
# How it was run: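 Fitness was computed with DiMSum as the error-weighted combination of replicate fold changes, kanamycin versus none, each normalised to wild type. The library randomised all eight intron nucleotides of the P1ex region, with the intron placed in the knt kanamycin-resistance gene on pET-22b(+) in E. coli BL21(DE3). Six replicate transformations were grown overnight at 37°C or 30°C on LB agar with or without 25 μg/mL kanamycin, plus 100 μg/mL carbenicillin, 50 μM IPTG and 0.2% rhamnose. Pooled colonies were amplicon-sequenced on an Illumina HiSeq 2500.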
Sequence,self-splicing fitness (ln) (30 °C),self-splicing fitness (ln) (37 °C)
GCGCAGCAAUAUUACGAACG,-1.37 ± 0.11,-0.329 ± 0.17
GCGCAGCAAUAUUACGACGG,-1.13 ± 0.14,-0.906 ± 0.17
GCGCAGCAAUAUUACGAGAC,-3.09 ± 0.23,-1.18 ± 0.18
GCGCAGCAAUAUUACGAGUU,-0.986 ± 0.066,-0.241 ± 0.1
GCGCAGCAAUAUUACGCAGG,-3.86 ± 0.31,-2.09 ± 0.34
GCGCAGCAAUAUUACGCAUA,-0.539 ± 0.1,-0.285 ± 0.1
GCGCAGCAAUAUUACGCCAG,-2.22 ± 0.26,-2.28 ± 0.47
GCGCAGCAAUAUUACGCGAG,-1.66 ± 0.08,-0.987 ± 0.089
GCGCAGCAAUAUUACGCUGU,-3.56 ± 0.23,-2.86 ± 0.34
GCGCAGCAAUAUUACGGAAG,-1.64 ± 0.12,-1.66 ± 0.11
GCGCAGCAAUAUUACGGACA,-1.45 ± 0.085,-0.514 ± 0.089
GCGCAGCAAUAUUACGGAGU,-2 ± 0.11,-0.744 ± 0.13
GCGCAGCAAUAUUACGGCCA,-0.728 ± 0.12,-1.03 ± 0.12
GCGCAGCAAUAUUACGGCGU,-3.18 ± 0.33,
GCGCAGCAAUAUUACGGGCC,-2.96 ± 0.22,-3.25 ± 0.27
GCGCAGCAAUAUUACGGGUG,-1.87 ± 0.083,-1.65 ± 0.11
GCGCAGCAAUAUUACGUCUG,-2.4 ± 0.14,-2.99 ± 0.3
GCGCAGCAAUAUUACGUGAC,-1.83 ± 0.095,-1.03 ± 0.087
GCGCAGCAAUAUUACGUGCC,-3.26 ± 0.18,-2.75 ± 0.29
GCGCAGCAAUAUUACGUGCG,-4.36 ± 0.28,-2.7 ± 0.21
GCGCAGCAAUAUUACGUUAU,-0.78 ± 0.048,-0.0311 ± 0.064
GCGGAGCAAUAUUACGAACU,,-0.902 ± 0.47
GCGGAGCAAUAUUACGAAGU,-3.58 ± 0.43,-2.08 ± 0.36
GCGGAGCAAUAUUACGAAUU,,-1.1 ± 0.33
GCGGAGCAAUAUUACGAGAC,-2.85 ± 0.38,
GCGGAGCAAUAUUACGAGCU,-2.02 ± 0.27,0.307 ± 0.24
GCGGAGCAAUAUUACGAUGC,-1.81 ± 0.37,

Sequence,self-splicing fitness (ln) (30 °C),self-splicing fitness (ln) (37 °C)
GCGGAGCAAUAUUACGAUUA,-2.93 ± 0.22,-1.73 ± 0.23
GCGGAGCAAUAUUACGCAGU,-3.68 ± 0.45,-1.79 ± 0.39
GCGGAGCAAUAUUACGCGCA,-2.93 ± 0.3,-0.701 ± 0.17
GCGGAGCAAUAUUACGCGUA,-2.77 ± 0.29,-1.53 ± 0.15
GCGGAGCAAUAUUACGGCAA,,-1.74 ± 0.18
GCGGAGCAAUAUUACGGGGA,-2.69 ± 0.39,-3.38 ± 0.42
GCGGAGCAAUAUUACGGUUU,,-2.53 ± 0.39
GCGGAGCAAUAUUACGUAGG,-4.18 ± 0.34,-0.489 ± 0.15
GCGGAGCAAUAUUACGUGCA,-2.52 ± 0.29,-0.813 ± 0.18
GCGGAGCAAUAUUACGUUUA,,-2.33 ± 0.37
GCGGAGCAAUAUUACGUUUG,-2.86 ± 0.17,-2.48 ± 0.27
GCGUAGCAAUAUUACGAACC,,-1.63 ± 0.36
GCGUAGCAAUAUUACGACCG,-1.5 ± 0.16,-0.0305 ± 0.2
GCGUAGCAAUAUUACGAGAU,-2.22 ± 0.12,-2.25 ± 0.17
GCGUAGCAAUAUUACGAGUU,-2.87 ± 0.092,-0.803 ± 0.097
GCGUAGCAAUAUUACGAUUG,-2.26 ± 0.18,-1.98 ± 0.21
GCGUAGCAAUAUUACGCACA,,-1.71 ± 0.47
GCGUAGCAAUAUUACGCCUU,-3.7 ± 0.33,-1.3 ± 0.21
GCGUAGCAAUAUUACGCGAC,-2.5 ± 0.11,-1.42 ± 0.12
GCGUAGCAAUAUUACGCUUU,-3.68 ± 0.22,-3.98 ± 0.19
GCGUAGCAAUAUUACGGAAG,-3.56 ± 0.31,-1.98 ± 0.33
GCGUAGCAAUAUUACGGCCC,0.00127 ± 0.32,-2.25 ± 0.39
GCGUAGCAAUAUUACGGGUC,-3.34 ± 0.29,-1.54 ± 0.21
GCGUAGCAAUAUUACGGUGG,-4.1 ± 0.31,-3.39 ± 0.39
GCGUAGCAAUAUUACGUAUC,-3.35 ± 0.38,-0.739 ± 0.2
GCGUAGCAAUAUUACGUGAA,-2.92 ± 0.15,-1.49 ± 0.13
GCGUAGCAAUAUUACGUGCG,-4.01 ± 0.17,-1.62 ± 0.14

Sequence,self-splicing fitness (ln) (30 °C),self-splicing fitness (ln) (37 °C)
GCGUAGCAAUAUUACGUUUA,-2.16 ± 0.15,-2.13 ± 0.15
GCUAAGCAAUAUUACGAAUG,-0.647 ± 0.082,-0.433 ± 0.11
GCUAAGCAAUAUUACGAAUU,-2.39 ± 0.18,-0.0664 ± 0.13
GCUAAGCAAUAUUACGACUA,-1.7 ± 0.19,-0.865 ± 0.23
GCUAAGCAAUAUUACGAGGU,-2.03 ± 0.19,-1.51 ± 0.15
GCUAAGCAAUAUUACGAGUG,-1.09 ± 0.048,-0.811 ± 0.06
GCUAAGCAAUAUUACGAGUU,-1.33 ± 0.082,-0.818 ± 0.11
GCUAAGCAAUAUUACGCAAA,-2.6 ± 0.26,-0.986 ± 0.17
GCUAAGCAAUAUUACGCAGA,-2.53 ± 0.26,-0.61 ± 0.21
GCUAAGCAAUAUUACGCAUC,-0.687 ± 0.13,-1.06 ± 0.21
GCUAAGCAAUAUUACGCGGA,-2.73 ± 0.2,-1.1 ± 0.15
GCUAAGCAAUAUUACGCGUG,-1.88 ± 0.092,-1.44 ± 0.12
GCUAAGCAAUAUUACGCGUU,-1.23 ± 0.083,-0.649 ± 0.1
GCUAAGCAAUAUUACGCUAU,-1.91 ± 0.14,-2.08 ± 0.17
GCUAAGCAAUAUUACGCUGU,,-3.18 ± 0.47
GCUAAGCAAUAUUACGGAAU,-1.68 ± 0.12,-0.857 ± 0.13
GCUAAGCAAUAUUACGGCAG,-3.28 ± 0.34,-2.85 ± 0.34
GCUAAGCAAUAUUACGGCGA,-0.936 ± 0.1,-0.247 ± 0.13
GCUAAGCAAUAUUACGGGUA,-1.32 ± 0.097,0.109 ± 0.09
GCUAAGCAAUAUUACGGUCA,-0.887 ± 0.13,-0.914 ± 0.15
GCUAAGCAAUAUUACGGUGC,-3.38 ± 0.22,-2.6 ± 0.39
GCUAAGCAAUAUUACGUAAG,-0.616 ± 0.11,0.0143 ± 0.15
GCUAAGCAAUAUUACGUACG,-1.67 ± 0.1,-1.13 ± 0.1
GCUAAGCAAUAUUACGUAGA,-0.845 ± 0.055,-0.223 ± 0.069
GCUAAGCAAUAUUACGUAGG,-1.34 ± 0.059,-0.249 ± 0.087

# From the supplement of paper PMC7877785
